Numbered stars: 1 amine (or outer) side, 2 acyl side, 3 side chain; on linkers, the order of the positions; unused ones are H or OH. Square brackets hold non-standard residues; d marks the D form. Side chains are listed from the residue outwards. Ends that are not written are not given here. * marks the point of attachment. Phe(4-CH2NH2) = NCc1ccc(C[C@H](N)C(=O)O)cc1; C18 diacid = O=C(O)CCCCCCCCCCCCCCCCC(=O)*; C16 diacid = O=C(O)CCCCCCCCCCCCCCC(=O)*; γGlu = O=C(O)[C@H](CCC(=O)[*:2])N[*:1]; Met(O2) = CS(=O)(=O)CC[C@H](N)C(=O)O; αMeD = C[C@](N)(CC(=O)O)C(=O)O; αMeS = C[C@](N)(CO)C(=O)O; AEEA = NCCOCCOCC(=O)O; Aib = CC(C)(N)C(=O)O; C16 = lipid (C16)
Columns and labels:
[1] = biological target: human GLP-1 receptor (GLP1R) (human, UniProt P43220 24-463); test: cell-based or functional assay
[2] = biological target: human Glucagon receptor (GCGR) (human, UniProt P47871 26-477); test: cell-based or functional assay
Chain of human Glucagon receptor (GCGR) (P47871 26-477): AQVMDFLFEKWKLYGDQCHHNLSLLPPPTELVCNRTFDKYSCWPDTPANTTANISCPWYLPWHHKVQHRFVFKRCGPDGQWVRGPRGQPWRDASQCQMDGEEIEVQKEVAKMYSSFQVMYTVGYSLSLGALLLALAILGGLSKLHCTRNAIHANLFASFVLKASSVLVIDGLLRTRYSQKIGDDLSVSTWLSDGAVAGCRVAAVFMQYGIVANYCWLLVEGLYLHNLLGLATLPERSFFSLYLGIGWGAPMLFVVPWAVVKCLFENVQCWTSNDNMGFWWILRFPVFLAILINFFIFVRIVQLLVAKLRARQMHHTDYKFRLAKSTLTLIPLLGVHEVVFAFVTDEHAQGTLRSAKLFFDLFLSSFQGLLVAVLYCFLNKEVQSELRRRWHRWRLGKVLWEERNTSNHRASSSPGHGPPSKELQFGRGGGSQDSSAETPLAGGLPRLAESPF

B1: TP610 (peptide)
peptide: H[Aib]QGTFTSDYSKYL[αMeD]ARAAK([AEEA-AEEA-γGlu-C18 diacid])DFVQWL[Met(O2)][αMeD]T-NH2
modifications: N-terminus assumed
SMILES: CC(C)C[C@H](NC(=O)[C@H](Cc1c[nH]c2ccccc12)NC(=O)[C@H](CCC(N)=O)NC(=O)[C@@H](NC(=O)[C@H](Cc1ccccc1)NC(=O)[C@H](CC(=O)O)NC(=O)[C@H](CCCCNC(=O)COCCOCCNC(=O)COCCOCCNC(=O)CC[C@H](NC(=O)CCCCCCCCCCCCCCCCC(=O)O)C(=O)O)NC(=O)[C@H](C)NC(=O)[C@H](C)NC(=O)[C@H](CCCNC(=N)N)NC(=O)[C@H](C)NC(=O)[C@](C)(CC(=O)O)NC(=O)[C@H](CC(C)C)NC(=O)[C@H](Cc1ccc(O)cc1)NC(=O)[C@H](CCCCN)NC(=O)[C@H](CO)NC(=O)[C@H](Cc1ccc(O)cc1)NC(=O)[C@H](CC(=O)O)NC(=O)[C@H](CO)NC(=O)[C@@H](NC(=O)[C@H](Cc1ccccc1)NC(=O)[C@@H](NC(=O)CNC(=O)[C@H](CCC(N)=O)NC(=O)C(C)(C)NC(=O)[C@@H](N)Cc1c[nH]cn1)[C@@H](C)O)[C@@H](C)O)C(C)C)C(=O)N[C@@H](CCS(C)(=O)=O)C(=O)N[C@@](C)(CC(=O)O)C(=O)N[C@H](C(N)=O)[C@@H](C)O
GLP1R EC50 human [1]: > 5 nM
GCGR EC50 human [2]: 0.19 nM

B2: TP605 (peptide)
peptide: H[Aib]QGTFTSDYSKYLDARAAQDFVQWL[Met(O2)][Phe(4-CH2NH2)]([AEEA-AEEA-γGlu-C20‑OH])T-NH2
GLP1R EC50 human [1]: 1.98 nM
GCGR EC50 human [2]: 3.75 nM

B3: TP611 (peptide)
peptide: HXQGTFTSDYSKYLDARAAXXFVQWLXXT
modifications: Aib (U) at 2; K(PEG2PEG2γEC18-OH) at 20; αMD at 21; L-methionine sulphone (2) at 27; αMD at 28; C-terminal amide
GLP1R EC50 human [1]: > 5 nM
GCGR EC50 human [2]: 0.2 nM

B4: TP614 (peptide)
peptide: H[αMeS]QGTFTSDYSKYLDARAAK([AEEA-AEEA-γGlu-C16 diacid])DFVQWL[Met(O2)][αMeD]T-NH2
modifications: N-terminus assumed
SMILES: CC(C)C[C@H](NC(=O)[C@H](Cc1ccc(O)cc1)NC(=O)[C@H](CCCCN)NC(=O)[C@H](CO)NC(=O)[C@H](Cc1ccc(O)cc1)NC(=O)[C@H](CC(=O)O)NC(=O)[C@H](CO)NC(=O)[C@@H](NC(=O)[C@H](Cc1ccccc1)NC(=O)[C@@H](NC(=O)CNC(=O)[C@H](CCC(N)=O)NC(=O)[C@](C)(CO)NC(=O)[C@@H](N)Cc1c[nH]cn1)[C@@H](C)O)[C@@H](C)O)C(=O)N[C@@H](CC(=O)O)C(=O)N[C@@H](C)C(=O)N[C@@H](CCCNC(=N)N)C(=O)N[C@@H](C)C(=O)N[C@@H](C)C(=O)N[C@@H](CCCCNC(=O)COCCOCCNC(=O)COCCOCCNC(=O)CC[C@H](NC(=O)CCCCCCCCCCCCCCC(=O)O)C(=O)O)C(=O)N[C@@H](CC(=O)O)C(=O)N[C@@H](Cc1ccccc1)C(=O)N[C@H](C(=O)N[C@@H](CCC(N)=O)C(=O)N[C@@H](Cc1c[nH]c2ccccc12)C(=O)N[C@@H](CC(C)C)C(=O)N[C@@H](CCS(C)(=O)=O)C(=O)N[C@@](C)(CC(=O)O)C(=O)N[C@H](C(N)=O)[C@@H](C)O)C(C)C
GLP1R EC50 human [1]: 1.4 nM
GCGR EC50 human [2]: 0.86 nM

B5: TP613 (peptide)
peptide: H[Aib]QGTFTSDYSKYLDERAAK([AEEA-AEEA-γGlu-C18 diacid])DFVQWL[Met(O2)][αMeD]T-NH2
modifications: N-terminus assumed
SMILES: CC(C)C[C@H](NC(=O)[C@H](Cc1ccc(O)cc1)NC(=O)[C@H](CCCCN)NC(=O)[C@H](CO)NC(=O)[C@H](Cc1ccc(O)cc1)NC(=O)[C@H](CC(=O)O)NC(=O)[C@H](CO)NC(=O)[C@@H](NC(=O)[C@H](Cc1ccccc1)NC(=O)[C@@H](NC(=O)CNC(=O)[C@H](CCC(N)=O)NC(=O)C(C)(C)NC(=O)[C@@H](N)Cc1c[nH]cn1)[C@@H](C)O)[C@@H](C)O)C(=O)N[C@@H](CC(=O)O)C(=O)N[C@@H](CCC(=O)O)C(=O)N[C@@H](CCCNC(=N)N)C(=O)N[C@@H](C)C(=O)N[C@@H](C)C(=O)N[C@@H](CCCCNC(=O)COCCOCCNC(=O)COCCOCCNC(=O)CC[C@H](NC(=O)CCCCCCCCCCCCCCCCC(=O)O)C(=O)O)C(=O)N[C@@H](CC(=O)O)C(=O)N[C@@H](Cc1ccccc1)C(=O)N[C@H](C(=O)N[C@@H](CCC(N)=O)C(=O)N[C@@H](Cc1c[nH]c2ccccc12)C(=O)N[C@@H](CC(C)C)C(=O)N[C@@H](CCS(C)(=O)=O)C(=O)N[C@@](C)(CC(=O)O)C(=O)N[C@H](C(N)=O)[C@@H](C)O)C(C)C
GLP1R EC50 human [1]: 3.34 nM
GCGR EC50 human [2]: > 5 nM

B6: TP607 (peptide)
peptide: H[Aib]QGTFTSDK([γGlu-γGlu-C16])SKYLDARAAQDFVK([AEEA-AEEA-γGlu-C16 diacid])WL[Met(O2)][αMeD]T-NH2
GLP1R EC50 human [1]: 1.06 nM
GCGR EC50 human [2]: 0.57 nM

B7: TP612 (peptide)
peptide: H[Aib]QGTFTSDYSKYL[αMeD]ARAAK([AEEA-AEEA-γGlu-C18 diacid])[αMeD]FVQWL[Met(O2)][αMeD]T-NH2
modifications: N-terminus assumed
SMILES: CC(C)C[C@H](NC(=O)[C@H](Cc1c[nH]c2ccccc12)NC(=O)[C@H](CCC(N)=O)NC(=O)[C@@H](NC(=O)[C@H](Cc1ccccc1)NC(=O)[C@](C)(CC(=O)O)NC(=O)[C@H](CCCCNC(=O)COCCOCCNC(=O)COCCOCCNC(=O)CC[C@H](NC(=O)CCCCCCCCCCCCCCCCC(=O)O)C(=O)O)NC(=O)[C@H](C)NC(=O)[C@H](C)NC(=O)[C@H](CCCNC(=N)N)NC(=O)[C@H](C)NC(=O)[C@](C)(CC(=O)O)NC(=O)[C@H](CC(C)C)NC(=O)[C@H](Cc1ccc(O)cc1)NC(=O)[C@H](CCCCN)NC(=O)[C@H](CO)NC(=O)[C@H](Cc1ccc(O)cc1)NC(=O)[C@H](CC(=O)O)NC(=O)[C@H](CO)NC(=O)[C@@H](NC(=O)[C@H](Cc1ccccc1)NC(=O)[C@@H](NC(=O)CNC(=O)[C@H](CCC(N)=O)NC(=O)C(C)(C)NC(=O)[C@@H](N)Cc1c[nH]cn1)[C@@H](C)O)[C@@H](C)O)C(C)C)C(=O)N[C@@H](CCS(C)(=O)=O)C(=O)N[C@@](C)(CC(=O)O)C(=O)N[C@H](C(N)=O)[C@@H](C)O
GLP1R EC50 human [1]: 4.95 nM
GCGR EC50 human [2]: 2.04 nM

B8: TP606 (peptide)
peptide: H[Aib]QGTFTSDK([γGlu-γGlu-C16])SKYLDARAAK([AEEA-AEEA-γGlu-C16 diacid])DFVQWL[Met(O2)]DT-NH2
GLP1R EC50 human [1]: 1.84 nM
GCGR EC50 human [2]: 1.01 nM

B9: TP603 (peptide)
peptide: H[Aib]QGTFTSDYSKYLDARAAQDFVQWL[Met(O2)]K([AEEA-AEEA-γGlu-C20‑OH])T-NH2
GLP1R EC50 human [1]: 1.17 nM
GCGR EC50 human [2]: 1.88 nM

Reference: patent US20200270325A1 (Merck Sharp & Dohme, published 2020)
